{
  "source": "paper PMC3139607",
  "about": "“Broad-Spectrum Inhibition of HIV-1 by a Monoclonal Antibody Directed against a gp120-Induced Epitope of CD4” (PLoS ONE, 2011)",
  "target": "T1, MAb DB81 (Mus musculus)",
  "T1 construct": "IgH V1-39*01, D2-2*01, J3*01; IgK V6-17*01, J2*01; Whole mouse IgG1 kappa; only the variable domains are printed; The first and last residues of each V domain lie under the PCR primers; also called C9 (parent hybridoma well); anti-human CD4-HIV-1-gp120 complex DB81 monoclonal antibody; source: mouse hybridoma (spleen cells of immunized Balb/c mice x P3X63Ag8.653 myeloma); purified from cell …",
  "T1 sequence (VH, as listed by the source, chain 1 of 2)": "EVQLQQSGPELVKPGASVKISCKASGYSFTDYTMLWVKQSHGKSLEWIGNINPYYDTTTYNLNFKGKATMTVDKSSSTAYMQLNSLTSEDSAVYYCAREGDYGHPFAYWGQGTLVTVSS",
  "T1 sequence (VL, as listed by the source, chain 2 of 2)": "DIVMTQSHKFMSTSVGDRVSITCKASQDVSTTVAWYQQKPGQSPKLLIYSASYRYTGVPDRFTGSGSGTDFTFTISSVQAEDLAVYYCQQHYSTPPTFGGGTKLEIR",
  "assay": "SPR; MAb DB81 bound to the chip; synthetic 19-mer CD4 peptides as analytes (Figure 5)",
  "settings": "both partners purified",
  "data": [
    {"binder": "GTWTCTVLQNQKKVEFKID (aa; 180-198 of membrane CD4 from Hominidae (Homo, P. troglodytes); also called human peptide; source: synthetic peptide (solid-phase F-moc, RP-HPLC purified))", "note": "[human CD4-derived 19-mer peptide GTWTCTVLQNQKKVEFKID]", "values": [
      {"measurement": "binding result", "value": "binds"}
    ]}
  ]
}
